From PMC4123461 (Experimental eye research, 2014)
Substitutions are numbered along the chain they refer to. Numbers in names are those of the source.

T1: Best1-CFP (human, UniProt O76090 1-585)
T1 sequence (looked up): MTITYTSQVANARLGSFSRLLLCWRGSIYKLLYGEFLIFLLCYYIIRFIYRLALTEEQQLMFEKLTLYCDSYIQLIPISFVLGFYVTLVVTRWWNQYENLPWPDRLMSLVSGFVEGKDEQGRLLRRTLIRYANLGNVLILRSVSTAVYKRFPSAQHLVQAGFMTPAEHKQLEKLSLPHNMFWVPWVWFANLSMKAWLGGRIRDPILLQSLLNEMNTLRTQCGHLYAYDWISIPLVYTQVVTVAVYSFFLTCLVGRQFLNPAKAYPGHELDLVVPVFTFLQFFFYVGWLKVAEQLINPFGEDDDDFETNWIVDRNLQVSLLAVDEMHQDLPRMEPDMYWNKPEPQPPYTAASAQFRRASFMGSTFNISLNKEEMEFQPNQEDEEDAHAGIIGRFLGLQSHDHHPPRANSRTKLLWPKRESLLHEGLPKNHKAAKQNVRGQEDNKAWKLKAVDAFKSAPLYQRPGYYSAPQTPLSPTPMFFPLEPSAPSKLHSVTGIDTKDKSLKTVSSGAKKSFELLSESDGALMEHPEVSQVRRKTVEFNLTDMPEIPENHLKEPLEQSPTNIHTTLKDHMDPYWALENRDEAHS

B1: WT Best1-YFP (natural protein, human, UniProt O76090 1-585, looked up)
chain: T1 sequence (looked up)
B2: A146L Best1-YFP (natural protein, human, UniProt O76090 1-585, looked up)
chain: T1 sequence (looked up) with A146L
B3: N179del Best1-YFP (natural protein, human, UniProt O76090 1-585, looked up)
chain: MTITYTSQVANARLGSFSRLLLCWRGSIYKLLYGEFLIFLLCYYIIRFIYRLALTEEQQLMFEKLTLYCDSYIQLIPISFVLGFYVTLVVTRWWNQYENLPWPDRLMSLVSGFVEGKDEQGRLLRRTLIRYANLGNVLILRSVSTAVYKRFPSAQHLVQAGFMTPAEHKQLEKLSLPHMFWVPWVWFANLSMKAWLGGRIRDPILLQSLLNEMNTLRTQCGHLYAYDWISIPLVYTQVVTVAVYSFFLTCLVGRQFLNPAKAYPGHELDLVVPVFTFLQFFFYVGWLKVAEQLINPFGEDDDDFETNWIVDRNLQVSLLAVDEMHQDLPRMEPDMYWNKPEPQPPYTAASAQFRRASFMGSTFNISLNKEEMEFQPNQEDEEDAHAGIIGRFLGLQSHDHHPPRANSRTKLLWPKRESLLHEGLPKNHKAAKQNVRGQEDNKAWKLKAVDAFKSAPLYQRPGYYSAPQTPLSPTPMFFPLEPSAPSKLHSVTGIDTKDKSLKTVSSGAKKSFELLSESDGALMEHPEVSQVRRKTVEFNLTDMPEIPENHLKEPLEQSPTNIHTTLKDHMDPYWALENRDEAHS

What follows are binders tested against T1, Best1-CFP (assay: FRET or BRET).
With B1 the “FRET efficiency (%E)” value was 13.6%.
In the case of B2, the “FRET efficiency (%E)” value is reported as 14.8%.
In the case of B3, the “FRET efficiency (%E)” value is reported as 12.4%.
